Measurements published in patent publication US7910708 (Novartis, dated 2011).
Changes are numbered by the printed parent chain.

B1: 01471/G6 antibody (human IgG1, kappa) (antibody, V domains shown)
VH: EVQLVESGGGVVQPGRSLRLSCAASGFTFSNYGMHWVRQAPGKGLEWVAIIWYDGSNKYYADSVKGRFTISRDNSKNTLYLQMNSLRAEDTAVYYCVKGSGDIPFDYWGQGTLVT
VL: EIVLTQSPATLSSSPGERATLSCRASQSVSSYLAWYQQKPGQAPRLLIYDASNRATGIPARFSGSGSGTDFTLTISSLEPEDFAVYYCHQRSHWPPIFTFGPGT
B2: 03161/H2 antibody (human IgG1, kappa) (antibody, V domains shown)
VH: B1 VH
VL: B1 VL with I58T
B3: 01771/E10 antibody (human IgG1, kappa) (antibody, V domains shown)
VH: QVQLVQSGGGVVQPGRSLRLSCAASGFTFSSYGMHWVRQAPGKGLEWVAIIWYDGSNKYYADSVKGRFTISRDNSKNTLYLQMNSLRAEDTAVYYCARLWFGDLDAFDIWGQGTMVT
VL: B1 VL with S13L, H93S
B4: 01951/G12 antibody (human IgG1, kappa) (antibody, V domains shown)
VH: EVQLVESGGGVVQPGRSLRLSCAASGFTFSSYGMHWVRQAPGKGLEWVAIIWYDGSNKYYADSVKGRFTISRDNSKNTLYLQMNSLRAEDTAVYYCARLWFGDLDAFDIWGQGTMVTVSS
VL: EIVLTQSPATLSLSPGERAILSCRAGQSVSSYLVWYQQKPGQAPRLLIYDASNRATGIPARFSGSGSGTDFTLTISSLEPEDFAVYYCQQRSSWPPVYTFGQGTKLEIKR
B5: 01951/G12 Fab (Fab, V domains shown)
VH: B3 VH with Q1E, Q6E
VL: B1 VL with S13L, T20I, S26G, A34V, H89Q, H93S, I97V, F98Y, P102Q
notes: Soluble human Fab expressed in E. coli, kappa light chain
B6: 01471/G6 Fab (Fab, V domains shown)
VH: B1 VH
VL: B1 VL
notes: Soluble human Fab expressed in E. coli, kappa light chain (captured via anti-human L-kappa antibody); the printed variable regions stop short of the end of framework 4
B7: 03161/H2 Fab (Fab, V domains shown)
VH: B1 VH
VL: B1 VL with I58T
notes: as for B5
B8: 01771/E10 Fab (Fab, V domains shown)
VH: B3 VH
VL: B1 VL with S13L, H93S
notes: as for B5

target: T1, recombinant human IL-13 (human, UniProt P35225 35-146, limits assumed); assay: cell-based or functional assay
T1 sequence (P35225 35-146 limits assumed): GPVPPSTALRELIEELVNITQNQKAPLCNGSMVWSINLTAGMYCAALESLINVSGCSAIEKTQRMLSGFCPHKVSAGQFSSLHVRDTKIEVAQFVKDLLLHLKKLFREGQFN

**Q.** B1 was tested. Which “EC50 [nM] human IL-13 (IL-13-induced eotaxin release from human lung fibroblasts)” value (shortened to “EC50”) did it give?
**A.** Its value is 1.23 nM.

**Q.** How did the “EC50” value turn out when B2 was run?
**A.** Its value is 0.95 nM.

**Q.** With B3 as the binder, how does the “EC50” value read?
**A.** Its value is 1.71 nM.

**Q.** B4 was tested. Which “EC50” value did it give?
**A.** The value was 0.33 nM.

target: T1, recombinant human IL-13; assay: SPR, BIAcore 2000; Fab captured via anti-human L-kappa antibody, hrIL-13 injected; 1:1 Langmuir model
Experimental: Quantitative Analysis of Binding Affinities: Determination of Anti-Human IL-13 Fab Candidates Surface plasmon resonance measurements quantifying the interaction of anti-IL-13 Fabs with several hrIL-13 are performed using the optical biosensor, BIAcore 2000. Specific binding of IL-13 to a respective IL-13 Fab immobilized on a BIAcore chip can be measured by following accumulation of the ligand on the receptor. The microscopic association ($kon$) and dissociation rates ($koff$) can be obtained directly from the mass accumulation rates on the chip and are expressed in response units (RUs). Anti-IL-13 Fab is immobilized on the chip surface via a secondary anti-human Lκ antibody (Jackson Immunochemicals). This capture antibody was covalently bound using the 'Amine coupling kit' (BIAcore, Cat. No. BR-1000-50) as recommended in the manufacturers' protocols. 250 μl of varying concentrations of hrIL-13 was injected at flow rate of 20 μl/min and the kinetic trace was recorded. The chip surface was regenerated by two acid wash steps using 100 mM HCl and injecting 10 μl with a flow rate of 20 μl/min. This treatment leads to dissociation of the Fab IL-13 complex due to reversible acid denaturation. No significant loss of binding activity was observed when the antibody was reinjected for a subsequent run. The kinetic traces were evaluated with the BIAcore software applying the 1:1 Langmuir association model The summarized affinity data on human IL-13 is shown in Table 1 herein.

**Q.** Which Kd does the source give for B5 here?
**A.** The Kd was 0.48 nM.

**Q.** How did the Kd turn out when B6 was run?
**A.** Its Kd is 0.1 nM.

**Q.** With B7 as the binder, how does the Kd read?
**A.** The Kd was 0.197 nM.

**Q.** How did the Kd turn out when B8 was run?
**A.** The Kd was 0.343 nM.
